Entries after “also recorded” stand apart in the source; their conditions may differ.
Legend:
[1] = system: olfactory marker protein (OMP); assay: OMP expression by Western blot in cells in non-permissive conditions; format: cell-based, mouse; conditions: 37° C., heterogeneous cell cultures, 15 μg protein per lane
Protocol: FIG. 2C. Effects of EGF, NGF, BDNF and NT-3 on OMP expression as determined by Western blot. Cells were maintained in non-permissive conditions at 37° C. in the absence of growth factors (C) or in presence of EGF (E), NGF (N), BDNF (B) or NT-3 (3). Samples were isolated from the heterogeneous cell cultures and from olfactory tissue (T), and were separated on a SDS-polyacrylamide gel (15 μg protein per lane). OMP is a 19 kD protein and, in situ, is expressed only in mature olfactory receptor neurons. OMP was not detected in control cells (C), cultured in the absence of growth factors or in cells incubated in the presence of EGF.
assayed by Western blot detection of olfactory marker protein (OMP), a marker of mature olfactory receptor neurons (Margolis, 1988).
Cells were always maintained in permissive culture conditions except when attempts were made to obtain a differentiated phenotype through transgene inactivation. In this case, cells were incubated in non-permissive culture conditions, i.e. at 37° C. in γ-interferon-free media for seven days, before the effects of transgene inactivation were determined. The effects of EGF, NGF, BDNF and NT-3 in promoting cell maturation/differentiation were assessed and, based on those experiments, BDNF and NT-3 were routinely added to the culture medium for cells in non-permissive culture conditions. In both culture environments, the air was kept humidified and contained 5% CO2.
Cells were scraped into a cold isolation buffer containing 20 mM Na(N-tris[hydroxymethyl]methyl-2-aminoethanesulfonic acid) (Na TES), 10 mM mannitol and 1% Triton X-100 at pH 7.4. The isolation buffer was supplemented with phenylmethylsulfonyl fluoride (30 μg.ml^−1), leupeptin (2 μg.ml^−1), benzamidine (16 μg.ml^'1), pepstatin (2 μg.ml^−1), and lima bean trypsin inhibitor (50 μg.ml^−1) to prevent protease activity. After five freeze/thaw cycles, cell extracts were centrifuged at 2,000 g for 5 minutes to pellet nuclei and cell debris. […]

[2] = system: NST+ cells in the heterogeneous culture; assay: Counting NST+ cells (anti-NST labeling) in heterogeneous olfactory cell cultures with growth factors; format: cell-based, mouse; conditions: for Normalized # of NST+ Cells: 100 ng.ml^−1
Protocol: FIG. 2A. Interferon causes a significant, dose-dependent increase in the number of NST+ cells in the heterogeneous culture, with an EC50 of 0.4 U.ml^−1. Cells were incubated at 33° C. and were stained with anti-NST and rhodamine-coupled secondary antibodies seven days after plating. Cell counts were obtained from ten randomly selected areas in each experiment. Data were normalized to the mean number of NST+ cells in the absence of interferon and each point represents the mean ±S.E.M from three experiments.
FIG. 2B. EGF (•) and NGF (□) both have mitogenic effects in permissive conditions over and above the effect of interferon. NST+ cells were counted as described in (A) and were normalized to baseline levels in the presence of interferon (40 U.ml^−1). […] Except for the presence of interferon (40 U.ml^−1), all experimental conditions were as in A.
To determine the optimal conditions for cell survival, growth, differentiation and maturation, cells were cultured in permissive and non-permissive conditions in the presence of interferon, EGF, NGF, BDNF and NT-3. […] The effects of EGF, NGF, BDNF and NT-3 on cell maturation in non-permissive culture conditions were
To keep the amount of expressed TAg to the minimum required for immortalization (Noble et al., 1995), heterozygous offspring from homozygous male H-2K^b-tsA58 transgenic and C57B1 female mice (Charles River Laboratories, Wilmington Mass., and Jackson Laboratory, Bar Harbor, Me., respectively) were used to generate the conditionally immortal neuronal cell culture. Cells were isolated in a procedure modified from a previously established technique (Ronnett et al., 1991). Briefly, post-natal day 1-3 animals were decapitated and the heads were sectioned longitudinally. The olfactory epithelium and nasal septum were removed and placed in an Eppendorf tube containing 500 μl culture medium. The culture medium consisted of Minimum Essential Medium in which the L-valine has been replaced by D-valine (MDV). This was supplemented with 10% fetal bovine serum (FBS), 4 mM glutamine, kanamycin (100 μg.ml^−1), gentamicin (50 U.ml^−1) and amphotericin B (2.5 μg.ml^−1; all from Gibco BRL, Gaithersburg, Md.). The MDV medium was chosen because fibroblasts lack D-amino acid oxidase and the reduction of L-valine inhibits fibroblast survival and growth (Gilbert et al., 1986). Tissue was centrifuged at low speed for two minutes and then most of the medium was removed. The cell pellet was chopped briefly with a pair of fine-point scissors before being resuspended in supplemented cell culture medium. The resultant cell clumps and cell suspension were plated out onto 2- or 4-chamber glass slides (Nunc, Naperville, Ill.) or plastic dishes (Fisher Scientific, Pittsburgh, Pa.). To enhance ORN adhesion, all cell culture materials were pretreated with laminin (0.125 mg.ml^−1 in serum-free media, Collaborative Biomedical Products, Bedford, Mass.) for at least 12 hours, prior to plating. Cells were maintained in culture at 33° C. (the permissive temperature for the SV40 TAg) and, to stimulate transcription of the transgene, the culture medium was supplemented with murine γ-interferon (40 U.ml^−1, Genzyme, Cambridge, Mass.). Provisionally, in permissive conditions, the cell culture medium was supplemented with epidermal growth factor (EGF, 20 ng.ml^−1, Gibco BRL) and 2.5 S nerve growth factor (NGF, 10 ng.ml^−1, Gibco BRL) before thorough characterizations of their effects were made in later experiments.
To determine optimum conditions for cell survival, growth, differentiation or maturation, numerous combinations of culture conditions were tested. These included i) removal of the olfactory epithelium from newborn, 4-week-old, and sexually mature animals, ii) subjecting tissue to digestion by trypsin (Gibco BRL, 0.5 g.l^−1 for 60 minutes at 37° C.), iii) addition of growth factors to the culture medium and iv) the use of diverse culture media. […]

B1: NT-3: neurotrophin-3 (Peprotech) (protein, UniProt P20783 139-257, looked up)
Neurotrophin-3: YAEHKSHRGEYSVCDSESLWVTDKSSAIDIRGHQVTVLGEIKTGNSPVKQYFYETRCKEARPVKNGCRGIDDKHWNSQCKTSQTYVRALTSENNKLVGWRWIRIDTSCVCALSRKIGRT
modifications: Neurotrophin-3
How did the “OMP expression detected by Western blot (in words)” value [1] turn out when B1 was run?
The value was “significant expression of OMP could be observed; also recorded: greater from cells incubated with NT-3 than with BDNF; also recorded: most readily detected”.

And the “Normalized # of NST+ Cells” value ([2]; 33° C., in the presence of 40 U.ml^−1 interferon, normalized to that point)?
Its value is 0.8 ± 0.1.

And the “Normalized # of NST+ Cells” value ([2]; 37° C.)?
The value was 1.4 ± 0.1.

And the “Effect on the number of NST+ cells (in words)” value ([2]; permissive conditions (33° C.))?
The value was “no effect”.
